Results as given in patent US20190241648A1 (STATEN BIOTECHNOLOGY B V, published 2019).
Ends that are not written are not given here.

How the values were obtained:
Experiment in all cases: peptide microarray
ApoC3 peptide … W42A = target: T1, ApoC3 peptide … W42A (human, not fully specified (bridges); also: cyclic constrained)
T1 peptide: ARGAVTDGFSSLK
Method in brief: (§1)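 Peptide microarrays of ApoC3-derived peptides incubated with antibody samples, then stained with goat anti-human IgG (Fc) DyLight680 (1:5000) and anti-HA DyLight800 (1:2000) control. Read-out by fluorescence scanning at intensities 7/7 (red/green); a secondary-only pre-stain checked background, HA frame peptides served as quality control.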

ApoC3 peptide … W42C = target: T2, ApoC3 peptide … W42C (human, not fully specified (bridges); also: cyclic constrained)
T2 peptide: ARGCVTDGFSSLK
Method in brief: as §1

ApoC3 peptide … V43C = target: T3, ApoC3 peptide … V43C (human, not fully specified; cyclic constrained)
T3 peptide: ARGWCTDGFSSLK
Method in brief: as §1

ApoC3 peptide … A39D = target: T4, ApoC3 peptide … A39D (human, cyclic constrained)
T4 peptide: DRGWVTDGFSSLK
Method in brief: as §1

ApoC3 peptide … S49D = ApoC3 peptide … S49D (human, cyclic constrained)
Method in brief: as §1

ApoC3 peptide … K51D = target: T5, ApoC3 peptide … K51D (human, thioether (positions not given here); also: cyclic constrained)
T5 peptide: ARGWVTDGFSSLD
Method in brief: as §1

ApoC3 peptide … A39F = target: T6, ApoC3 peptide … A39F (human, cyclic constrained)
T6 peptide: FRGWVTDGFSSLK
Method in brief: as §1

ApoC3 peptide … R40F = target: T7, ApoC3 peptide … R40F (human, not fully specified (bridges); also: cyclic constrained)
T7 peptide: AFGWVTDGFSSLK
Method in brief: as §1

ApoC3 peptide … S49F = ApoC3 peptide … S49F (human, cyclic constrained)
Method in brief: as §1

ApoC3 peptide … K51F = target: T8, ApoC3 peptide … K51F (human, thioether (positions not given here); also: cyclic constrained)
T8 peptide: ARGWVTDGFSSLF
Method in brief: as §1

ApoC3 peptide … S48G = target: T9, ApoC3 peptide … S48G (human, not fully specified; cyclic constrained)
T9 peptide: ARGWVTDGFGSLK
Method in brief: as §1

ApoC3 peptide … R40I = target: T10, ApoC3 peptide … R40I (human, not fully specified (bridges); also: cyclic constrained)
T10 peptide: AIGWVTDGFSSLK
Method in brief: as §1

ApoC3 peptide … W42I = target: T11, ApoC3 peptide … W42I (human, not fully specified (bridges); also: cyclic constrained)
T11 peptide: ARGIVTDGFSSLK
Method in brief: as §1

ApoC3 peptide … S48I = ApoC3 peptide … S48I (human, cyclic constrained)
Method in brief: as §1

ApoC3 peptide … K51I = target: T12, ApoC3 peptide … K51I (human, not fully specified; cyclic constrained)
T12 peptide: ARGWVTDGFSSLI
Method in brief: as §1

ApoC3 peptide … R40K = target: T13, ApoC3 peptide … R40K (human, not fully specified (bridges); also: cyclic constrained)
T13 peptide: AKGWVTDGFSSLK
Method in brief: as §1

ApoC3 peptide … D45K = target: T14, ApoC3 peptide … D45K (human, cyclic constrained)
T14 peptide: ARGWVTKGFSSLK
Method in brief: as §1

ApoC3 peptide … A39L = target: T15, ApoC3 peptide … A39L (human, cyclic constrained)
T15 peptide: LRGWVTDGFSSLK
Method in brief: as §1

ApoC3 peptide … R40M = target: T16, ApoC3 peptide … R40M (human, not fully specified (bridges); also: cyclic constrained)
T16 peptide: AMGWVTDGFSSLK
Method in brief: as §1

ApoC3 peptide … S48M = ApoC3 peptide … S48M (human, cyclic constrained)
Method in brief: as §1

ApoC3 peptide … R40P = target: T17, ApoC3 peptide … R40P (human, not fully specified (bridges); also: cyclic constrained)
T17 peptide: APGWVTDGFSSLK
Method in brief: as §1

ApoC3 peptide … G46P = target: T18, ApoC3 peptide … G46P (human, not fully specified (bridges); also: cyclic constrained)
T18 peptide: ARGWVTDPFSSLK
Method in brief: as §1

ApoC3 peptide … G41Q = target: T19, ApoC3 peptide … G41Q (human, also: cyclic constrained)
T19 peptide: ARQWVTDGFSSLK
Method in brief: as §1

ApoC3 peptide … D45Q = target: T20, ApoC3 peptide … D45Q (human, cyclic constrained)
T20 peptide: ARGWVTQGFSSLK
Method in brief: as §1

ApoC3 peptide … G46Q = target: T21, ApoC3 peptide … G46Q (human, not fully specified (bridges); also: cyclic constrained)
T21 peptide: ARGWVTDQFSSLK
Method in brief: as §1

ApoC3 peptide … S49Q = target: T22, ApoC3 peptide … S49Q (human, cyclic constrained)
T22 peptide: ARGWVTDGFSQLK
Method in brief: as §1

ApoC3 peptide … G46R = target: T23, ApoC3 peptide … G46R (human, thioether (positions not given here); also: cyclic constrained)
T23 peptide: ARGWVTDRFSSLK
Method in brief: as §1

ApoC3 peptide … W42T = target: T24, ApoC3 peptide … W42T (human, not fully specified (bridges); also: cyclic constrained)
T24 peptide: ARGTVTDGFSSLK
Method in brief: as §1

ApoC3 peptide … F47T = target: T25, ApoC3 peptide … F47T (human, also: cyclic constrained)
T25 peptide: ARGWVTDGTSSLK
Method in brief: as §1

ApoC3 peptide … S48T = ApoC3 peptide … S48T (human, cyclic constrained)
Method in brief: as §1

ApoC3 peptide … G41W = target: T26, ApoC3 peptide … G41W (human, also: cyclic constrained)
T26 peptide: ARWWVTDGFSSLK
Method in brief: as §1

ApoC3 peptide … F47Y = target: T27, ApoC3 peptide … F47Y (human, also: cyclic constrained)
T27 peptide: ARGWVTDGYSSLK
Method in brief: as §1

- % of binding to wild-type peptide (ApoC3 peptide … W42A): 116%
- % of binding to wild-type peptide (ApoC3 peptide … W42C): 61.6%
- % of binding to wild-type peptide (ApoC3 peptide … V43C): 0.12%
- % of binding to wild-type peptide (ApoC3 peptide … A39D): 50.7%
- % of binding to wild-type peptide (ApoC3 peptide … S49D): 0%
- % of binding to wild-type peptide (ApoC3 peptide … K51D): 0%
- % of binding to wild-type peptide (ApoC3 peptide … A39F): 78.2%
- % of binding to wild-type peptide (ApoC3 peptide … R40F): 70.8%
- % of binding to wild-type peptide (ApoC3 peptide … S49F): 0.89%
- % of binding to wild-type peptide (ApoC3 peptide … K51F): 6.24%
- % of binding to wild-type peptide (ApoC3 peptide … S48G): 3.7%
- % of binding to wild-type peptide (ApoC3 peptide … R40I): 35.1%
- % of binding to wild-type peptide (ApoC3 peptide … W42I): 27.9%
- % of binding to wild-type peptide (ApoC3 peptide … S48I): 23.6%
- % of binding to wild-type peptide (ApoC3 peptide … K51I): 0.86%
- % of binding to wild-type peptide (ApoC3 peptide … R40K): 58.1%
- % of binding to wild-type peptide (ApoC3 peptide … D45K): 39.4%
- % of binding to wild-type peptide (ApoC3 peptide … A39L): 77.5%
- % of binding to wild-type peptide (ApoC3 peptide … R40M): 69.6%
- % of binding to wild-type peptide (ApoC3 peptide … S48M): 121%
- % of binding to wild-type peptide (ApoC3 peptide … R40P): 52.7%
- % of binding to wild-type peptide (ApoC3 peptide … G46P): 0%
- % of binding to wild-type peptide (ApoC3 peptide … G41Q): 27.1%
- % of binding to wild-type peptide (ApoC3 peptide … D45Q): 21%
- % of binding to wild-type peptide (ApoC3 peptide … G46Q): 0%
- % of binding to wild-type peptide (ApoC3 peptide … S49Q): 0.33%
- % of binding to wild-type peptide (ApoC3 peptide … G46R): 0.3%
- % of binding to wild-type peptide (ApoC3 peptide … W42T): 186%
- % of binding to wild-type peptide (ApoC3 peptide … F47T): 0%
- % of binding to wild-type peptide (ApoC3 peptide … S48T): 88.3%
- % of binding to wild-type peptide (ApoC3 peptide … G41W): 17.7%
- % of binding to wild-type peptide (ApoC3 peptide … F47Y): 67.7%
B1: anti-ApoC3 antibody 14C7 (antibody, V domains shown)
VH: QVQVQESGPGLVKPSQTLSLTCTVSGGSITTNSYYWSWIRQPPGKGLEWMGAIDYSGDTYYSPSLKSRTSISRDTSKNQFTLQLTSVTPEDTAVYYCVSRIPTGEYWGQGTQVTVSS
VL: QTVVTQEPSLSVSPGGTVTLTCGLNSGSVTSSNYPDWYQQTPGQAPRLLIYNTNSRHSGVPSRFSGSISGNKAALTITGAQPEDEADYYCALYMGSDSVVFGGGTHLTVL
notes: it was detected with goat anti-human IgG (Fc); also called mAb 14C7; llama antibody 14C7
